A protein production outcome set (Wang et al. 2014)

Test: label from the status in PepcDB records
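Further: failed if final PepcDB status was selected cloned or expressed and not failed if soluble or beyond.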

Q: Which protein production does the source give for “MNEQKNTAENTVNKQKDLETAGKTREKEDPKQLLLTASETDNYEDKLRIYDKALGLDPLYFDAWLQKGFVLDRLGRSNEALDCYNKALEIVPDHLGIKCLKGFAYSNLKDYEKAIECYDEVLKVNSEDVFSLFQKGSVLENLGRYGEAMEAYDRALEIDPADILIREKKMRLLGLIYKKGTLVDSPDSDFN” here?
A: failed

Q: With “MHALPGIRTLFLGMPSSTRSPETAVPRILTSRTDVTERSEHNALMFGSPKERWDFYRREIQYDTSILANRTDAYLAAQSFLVIAFASSMSNLNPEWGGLFTLLVPPFLALLCILTTLNAWPGIRAAYDIIDQWYFKQVQLLLAYDESPLFCESESTHKSYRKSLPFSLRAP” as the sequence, how does the protein production read?
A: failed

Q: With “SNSALYNVDAGHRAVIFDRFRGVQDIVVGEGTHFLIPWVQKPIIFDCRSRPRNVPVITGSKDLQNVNITLRILFRPVASQLPRIYTSIGEDYDERVLPSITTEILKSVVARFDAGELITQRELVSRQVSDDLTERAATFGLILDDVSLTHLTFGKEFTEAVEAKQVAQQEAERARFVVEKAEQQKKAAIISAEGDSKAAELIANSLATAGDGLIELRKLEAAEDIAYQLSRSRNITYLPAGQSVLLQLPQ” as the sequence, how does the protein production read?
A: not failed

Q: With “MPVVDIDPDELRRLTGHRSKDDDELRQDLFGLGIEYEGETEDGDFKLEFEADRLDRLSVEGIARSLRYHAGDDRGVDIPDTNAPEWAIDVTDVPADRPYVTGAVIRGVDLDADALDSLIQLQEKLHATMGRKRAKGAIGIHDLAMLKGDTVDGDGTAARSLTYTGIDPDGDTFVPLDDDAERTPADVLTEHPTGETYADLLADHDTYPAIYDDIGLFSFPPVINGRRTEVTTDSRELFVELTGTDQWTIDRMCAIICYALDARGATIEDVTVDYPDRELHRPDFAVRTKHVSHDRIETLLGVEFTTEAVVDLAERAGLDATPTDDGYDVEIPPYRVDVRHPVDVVDDLGRAYDFNDLTPRYPDVNTIGGRTESSRLERSVRQALVGLGFEDLLNFNMTSEAENFDRMRLTPDHDAVGAAQPATIAEPYSQDFTILRTWALPSLAMVLETNTHHAYPQDLAEVGFAAHADGDTQTGVAERRTVAAVLARNDASYEDAKARLQALCDEFAVALETPPTTHPSFIDGRAATIEIDGQPAGVIGELHPGVIVEHDVEVPVAGFEFELDALR” as the sequence, how does the protein production read?
A: failed

Q: With “MPKLDLDSIERRIGSVYPGRLNAAMDGRSSLRLGDAGGLSQFGVNLVRLEPGAKSSLRHYHMEQDEFVMVTEGALVLVDDQGEHPMVPGDCAAFPAGDPNGHQFVNRTDAPATFLVVGTRTPTETAYYSDMDMMVKQDASGFAFTRKDGSPLTADQIGDDNE” as the sequence, how does the protein production read?
A: not failed

Q: With “MIQMDGGDRLRVTLLDRMSTVESSRSCLTLEAILMADKNRTSPQILSPPPSRSQSNRSLVEVMQREHRHSRDKTAWKSLREKLRLKRNGSVWISSNSIPSLDTPIPNRDNVSHQLGFLLSNSGNVTEEASSVEGRIRLGAVLAEERALSAREEETPAEREVEPARMSLMELLEENEGQMSFVSVDGEAEEEVAAVTAAEISCCVCMVRSKGAAFIPCGHTFCRLCSRELWVQRGNCPLCNTTILEVLDLF” as the sequence, how does the protein production read?
A: failed

Q: With “MDKPVVRDAALLIFRAVLGVIFVAHGWEKLFISGVTKTTGQFSAWGVPQPKLSVWITSISELLGGAFLVVGLLTTFVAGALALLIAAAIYFVHLSSGFFTVENGIEFPLLIIVSLLVIVVFGSGRASVDGVLTRG” as the sequence, how does the protein production read?
A: failed

Q: For “MDELFAKAPIKKVYFKLALPVVLGMITTMIYNLADTMFVAKTSDTNLVAGITIGAPLFTFLIAVSDIFGLGGSSLISRLFGERNYQLSKRVSSFCMIGGFVTGLILTAILLIFENPILHLLGAKAATYQDAADFYRIISIGAAPIVFSIIPQNLIRTEGLATQAMIATMTGTILAIILDPIFLFVFKMGAIGVGIANITGYLVTDIILIYYVLCKTEYIKLKLKYTKISGKTIKDIVAIGIPGSITNFAQSFGMALLNSSLALYGANKVAAMGITQKIYSIVILVIVGFAFGSQPLIGYNYGAKNWKRLKKILNFDILVQVVYAVVSGGLLILFARPVTALFMNQPDIVNAGSYMLIATIITTPIVGIILVYTTVFQSVGNAWAAFIMAIARQGVVYFIALETLKNIFGYHGIVWAQAVSDVITCIIGYFIYEKSLDLKDKIKN”, which protein production is on record?
A: failed

Q: For “MSASIRDAGVADLPGILAIYNDAVGNTTAIWNETPVDLANRQAWFDTRARQGYPILVASDAAGEVLGYASYGDWRPFEGFRGTVEHSVYVRDDQRGKGLGVQLLQALIERARAQGLHVMVAAIESGNAASIGLHRRLGFEISGQMPQVGQKFGRWLDLTFMQLNLDPTRSAP”, which protein production is on record?
A: not failed

Q: Which protein production does the source give for “MQYQGRSKRSKTGARLRPRSKKSKSELGREPTETTVGEPRFRTVDVRGDAEKVRVLSTNVVNVATDSGAERATIEDVSANDANPNYARRNIITKGAIIETDAGTARVTSRPGQDGQVNATRVDE” here?
A: failed

Q: For “MNSSIVNAGIDPQVRESLKSFVGEAIDYANTSGKDAAIAKFNDQNGTFVRGNLYVYAFDYNGTTLALPYQPQLIGTDLSGLQDPYGVNYTKVEIFLEHHHHHH”, which protein production is on record?
A: failed

Q: With “MTEEQFSSYHPPLPPTTEEDRFSWLRLLRSRRVGPTTFRRLMHEHGTAQNALAALPEVARAAGVEGYEICPPGVVEAELKAAKAAKARLLCLGDADYPSHLAGISDAPPLLWLLGDPALLRRPMIALVGARNASSLGTRMARALAQDLGTAGFVVVSGLARGIDTAAHLAALPSGTIAVMAGGVDTVYPAENTHLAADIAQHGLRLSEQPMRLTPQARHFPRRNRIISGLAQAVVVVEAAAKSGSLITARDALDQGREVLAVPGHPFDARAAGCNMLIRDGAHLVRNAEDVITALPALTAPQPQPDLCDLMQQPAPPAKRSLRETVALHSLILDRLGPSPVAEDQLIRDLAASPGEVAPVLVDLELEGRINRQAGGLLSRVN” as the sequence, how does the protein production read?
A: failed

Q: With “MTTLVLRAKRWLYLLHRWMGVGLCLLFVLWFASGVVMMYVGYPNLTPAERLAHLPGLDAAQVRLGPAQALRAAGLEQAAEIRLAASRAGQPFYAVVPLAGGRTLRVDAASGQLAGRATPAQARASALAYFGARHAAREGGLVSEDAHTHTRTLDEHRPLYVFEMDDPARTRLYVSSSTGEVVRDAPRLERGWNYVGAWLHWLYPLRGAYWHDIVVWLSVLGVALTVSGTVVGLWRWRFARPYASGSRSPYRERFMRWHHIAGLLFAATTLTWIFSGLMSMNPWQVFGTRATQLDRAAYRGGPLQADNLPAGPAVAMPARKLVWTRVAGQTLLQVYGAAGAPALRTADGAAPRTLAPATLGVALGRLLPSAAPPRIEVLDGYDSYYYARAPHTMLGHVEKPLPVWRVVYDDPRGTWLHVDPRSGEILGSLDRPRRVSRWLFAFLHSWDWPPLLQRRPAWDAVLIVLSLGGLLLSGAGVVIGWRRVGRKLR” as the sequence, how does the protein production read?
A: failed

Q: For “MSDLKSLATKFASDHESGKLLVLPTVWDTWSAGLVEEAGFSGLTIGSHPVADATGSSDGENMNFADYMAVVKKITSAVSIPVSVDVESGYGLSPADLIAQILEAGAVGINVEDVVHSEGKRVREAQEHADYIAAARQAADVAGVDVVINGRTDAVKLGADVFEDPMVEAIKRIKLMEQAGARSVYPVGLSTAEQVERLVDAVSVPVNITAHPVDGHGAGDLATLAGLGVRRVTFGPLWQKWLAATSAQQLKGWA”, which protein production is on record?
A: not failed

Q: For “MANKTKSKSLLEKMWRIKWWLLSIFTVLFLLFALFFPLNNYYVELPGGAFDTKEVLTVNKKADDSKGSYNFVAVAQTKATLALMLYTQFNDFAKLQTAEEATGNYSDEDFMRINQFYMETSQNQAVYQGLTLAGKEVSLEYMGVYVLQVADDSSFKGVLNIADTVTAVNGKTFDNSTDMIKYVQGLKLGSKVKVTYMRDGKEKTATGKIIKIANGKNGIGIGLTDHTEIKSPENVKFKLDGVGGPSAGLMFTLAIYDQVSGQDLKAGRKIAGTGTIEKDGAVGDIGGAYLKVKSAADSGADIFFVPNNLVTKEMKKADPDAKTNYQEAKEAAEKLGTKMKIVPVKTAQEAIDYLKKTK”, which protein production is on record?
A: failed

Q: With “MVKTFRQREEDIVRCNRCGFCEEVCPTYKATGEEFSLARGRNRLMRQSMEGKLDLTKEPEINQHIYSCLLCGACVAACPSSVITDTLIKTARAEITRAKGQPFPIRMALRGVLANQRRLTLGAKVLRFYQRSGARWLARHIGFLNLMGSLGKAEGLLPAIPEKTLRVQLPQLLKKPMKPRHKVAYFAGCMINNFFTAVGEATLRVYQENDIEVVVPTSNCCGIPHEAYGDIEMQIKLAKENLDAFSRYEVEAIVTDCASCAHGLHSYAELLQDDPHYGPLAAQLAAKVKDASQYLVEIGFKKEMGPVNATVTYHDPCHAARGLKVKEQPREILKSIPGVKFVEMNESDWCCGGAGSYNVTHYELSRKILARKMDNFKKTGAEYLATSCPACLMQLAHGLDVYRLSGKAIHVMQILDQAYQNRAVRSKAKAG” as the sequence, how does the protein production read?
A: failed

Q: For “MSSVKDTMTTQVATVSPNQTIQEAASLMKQHNVGAIPVVEQGVLKGMLTDRDIALRTTAQGRDGQTPVSEVMSTELVSGNPNMSLEDASQLMAQHQIRRLPIVDQNNLVGIVALGDLAVNQMSNESAGSALTNISHQNIH”, which protein production is on record?
A: failed

Q: Which protein production does the source give for “MKVERRTIEYIPNEERHGKAKDLFPVWFGANMHITTLVTGTIPVAMGLNLFWSVAAIICGTLIGAIFMASHSAQGPQLGIPQMIQSRAQFGVIGAILPLFLVMFIYLGFFASSTILAAGTLSSFVPIPGSWSIIGLSAVCFLLTIFGHDLIHKMQKILSWTSFAVFFAATILIFQLPIPAGSWIPGAIDLPIFLVAVSAVATWQLAYAPYVADYSRYLPVKTPASKTFWYSYAGTSVSSIWMMLLGALLTTSLPDFTANSGSQIVQLFGPFSFIMLIIVLFGQMAINVFNLYGAFMSTTTTLEPFLKLKVTPKVRIIMILGVTLVGTVLSLLGQSNFMELFLNFIFFISYFLIPWTAINLVDYYFVRHGKYQVKAMFDVNGPYGKVNWITTIAFVLSILLEIPFINTSFYIGPLAKMFGGGDIAWIIGLAVPSVLYYVLMKPRLKKRAGYQEKLSSL” here?
A: failed

Q: Which protein production does the source give for “VRIVLVGSGNLATQTALALSEAASPPVQVWSRNAEHAERLASMLPGATATDRTEELLCDAELYLLAVSDHALESVAATLPPTSGIWAHTAGSMPMDTLRPYHAQIGVFYPLQTFSRERRVDYSSIPIYIEGNDESVVRLLESVARLISRNVLRCT” here?
A: failed

Q: With “MEKKPWEEDISIEEFKKSLNKDKITNLIIKRRWNKGKSTYHLSFNGDFEVVTKKPSTKYVTHKQLDQKLKEFKQDLMVELHDTFATKADLRDSEARINQKLEALVQVVLLHGEQINKLTQIVEKQGEQIRELQVEQKAQRQEFNARMDRLENLLVESIESTNKRFDSIEGRLDSMDSRLDSMENRLDSIEGRLDSVEGRLDSVEGRLDSMENRLDSMETRLDKIDPPK” as the sequence, how does the protein production read?
A: failed

Q: Which protein production does the source give for “MANTATDQRADTLMLVHVPADRKKTYAISLMRDLWIDIPGVGESKINAALAYGGVPLMVQTVESLLQQRIDHVAMIDFQGFKGLTDALGGVEVDVRIPFAPSSGPKAGQVYDAGKQTLNGDEALAFVRERKAFSDGDYQRVRNQQAYLKAIIGKVIARETLTNPVTISNMVSAVSPFVSVDKDFDAAAIGSLALSMKDVRAQDTVMFTLPTLGTGTSPDGQSIVLADTTAIADVTAALAKDQVDAYITAHALDKGFLEHHHHHH” here?
A: not failed

Q: Which protein production does the source give for “MPNIGIIGAGIGGLQLGLQLRQHDIPVTIYTDKTANQIAGGRLLNSVAHHGPTLERERLLGVHFWPVEEYGYSCHHHYLGGDQPMSFRGDFTNWSSAIDYRLYLPKLSEAFQERGGNLEVRMLQADDIEPIAARHDLIVVAAGRGAFASMFPRRPDLSPYDTPQRALSVGIYRGIAESDPRGVTISTSPGHGDLLEIPMYTEDGFLTALLFENIPGGDLEILAKMSYDDDPQAFNRTVLDKLARHHPQTFERVDHTQFGLHRSIDLLQGALVPTVREDYAKLPGGKFALAIGDVHTVVDPLLGQGANSASHSAWVTGEAIVEDLGFDEMFCTRVARRRADVVLGAAQWTNLMLAPPAEHVLRLFEAMNANKAVADEFTHNFDHPDRQWQILATAERTNAFLARHGIESAAALAV” here?
A: failed

Q: For “MPSAMNERTVAELEKLLRYIAANLKQRGREILTNYPITPPQFVALQWLLEEGDLTVGELSNKMYLACSTTTDLVDRMERNGLVARVRDEHDRRVVRIRLLEKGERIIEEVIEKRQRDLANVLESFSDEEIVVFERCLRKLHQEMTKE”, which protein production is on record?
A: not failed
